Assay results: the RNAGym collection of RNA variant scans (doi:10.7554/elife.80360)

B1: HDV Ribozyme (parent)
chain: GGCCGGCAUGGUCCCAGCCUCCUCGCUGGCGCCGGCUGGGCAACAUUCCGAGGGGACCGUCCCCUCGGUAAUGGCGAAUGGGACCCA

Variants of: B1
Assay: self-cleavage, relative activity (ratio to wild type); higher = more cleavage; co-transcriptional

Variant | self-cleavage
GGCCGGCAUGGUCCCAGCCUCCUCGCUGGCGCCGGAUGGGCAACAUUCCGAGGGGACCGUCCCCUCGCUAAUGGCGAAUGGGACCCA [C36A G68C] | 0.235
GGCCGGCAUGGUCCCAGCCUCCUCGCUGGCGCCGGAUGGGCAACAUUCCGAGGGGACCGUCCCCUCGUUAAUGGCGAAUGGGACCCA [C36A G68U] | 0.157
GGCCGGCAUGGUCCCAGCCUCCUCGCUGGCGCCGUCUGGGCAACAUCCCGAGGGGACCGUCCCCUCGGUAAUGGCGAAUGGGACCCA [G35U U47C] | 0.189
GGCCGGCAUGGUCCCAGCCUCCUCGCUGGCGCCGGGUGGGCAACAUUCCGGGGGGACCGUCCCCUCGGUAAUGGCGAAUGGGACCCA [C36G A51G] | 0.151
GGCCGGCAUGGUCCCAGCCUCCUCGCUGGCGCCGGGUGGGCAACAUUCCGAGGGGAUCGUCCCCUCGGUAAUGGCGAAUGGGACCCA [C36G C57U] | 0.128
GGCCGGCAUGGUCCCAGCCUCCUCGCUGGCGCCGGAUGGGCAACAUUCCGAGGGGACCUUCCCCUCGGUAAUGGCGAAUGGGACCCA [C36A G59U] | 0.138
GGCCGGCAUGGUCCCAGCCUCCUCGCUGGCGCCGGAUGGGCAACAUUCCGAGGGGACCGUCCCCUCGGUAAUGGCGAAUGGGAUCCA [C36A C84U] | 0.163
GGCCGGCAUGGUCCCAGCCUCCUCGCUGGCGCCGGAUGGGCAACAUUCCGAGGGGACCGUCCCCUCGGUAAUGGAGAAUGGGACCCA [C36A C75A] | 0.175
GGCCGGCAUGGUCCCAGCCUCCUCGCUGGCGCCGGGUGGGCAACUUUCCGAGGGGACCGUCCCCUCGGUAAUGGCGAAUGGGACCCA [C36G A45U] | 0.0791
GGCCGGCAUGGUCCCAGCCUCCUCGCUGGCGCCGGAUGGGCAACAUUCCGAGGGGACCGUCCCCUCGGUAAUGGCGAAUGUGACCCA [C36A G81U] | 0.0523
GGCCGGCAUGGUCCCAGCCUCCUCGCUGGCGCCGUCUGGGCAACAUUCCGAGGGGACCGGCCCCUCGGUAAUGGCGAAUGGGACCCA [G35U U60G] | 0.285
GGCCGGCAUGGUCCCAGCCUCCUCGCUGGCGCCGGAUGGGCAACAUUCCGAGGGGACCGUCCCCUCGGUAAUGGCGAAUGGGGCCCA [C36A A83G] | 0.159
GGCCGGCAUGGUCCCAGCCUCCUCGCUGGCGCCGGGUGGGAAACAUUCCGAGGGGACCGUCCCCUCGGUAAUGGCGAAUGGGACCCA [C36G C41A] | 0.248
GGCCGGCAUGGUCCCAGCCUCCUCGCUGGCGCCGUCUGGGCAACAUUCCGAGGGGACCGUCCCCUCGUUAAUGGCGAAUGGGACCCA [G35U G68U] | 0.309
GGCCGGCAUGGUCCCAGCCUCCUCGCUGGCGCCGUCUGAGCAACAUUCCGAGGGGACCGUCCCCUCGGUAAUGGCGAAUGGGACCCA [G35U G39A] | 0.0906
GGCCGGCAUGGUCCCAGCCUCCUCGCUGGCGCCGGGUGGGCAACAUUCCGAGGGGACCGUCCCCUCGGUGAUGGCGAAUGGGACCCA [C36G A70G] | 0.147
GGCCGGCAUGGUCCCAGCCUCCUCGCUGGCGCCGGGUGGGCAACAUUCCGAGGGGACCGUGCCCUCGGUAAUGGCGAAUGGGACCCA [C36G C61G] | 0.0386
GGCCGGCAUGGUCCCAGCCUCCUCGCUGGCGCCGGGUGGGCAACAUUCCGAGGGGACCGUUCCCUCGGUAAUGGCGAAUGGGACCCA [C36G C61U] | 0.121
GGCCGGCAUGGUCCCAGCCUCCUCGCUGGCGCCGGGUGGGCAACAUUCCGAGGGGACCGUCCCCUCGGUAGUGGCGAAUGGGACCCA [C36G A71G] | 0.138
GGCCGGCAUGGUCCCAGCCUCCUCGCUGGCGCCGGGUGGGCAACAUUCCGAGGGGACCGUCCCCUCGGUACUGGCGAAUGGGACCCA [C36G A71C] | 0.0475
GGCCGGCAUGGUCCCAGCCUCCUCGCUGGCGCCGGAUGGGCAACAUUCCGAGGGGACCGUCCCCUCGGUGAUGGCGAAUGGGACCCA [C36A A70G] | 0.119
GGCCGGCAUGGUCCCAGCCUCCUCGCUGGCGCCGGAUGGGCAACAUUCCGAGGGGACCGUCCCCUCGGUUAUGGCGAAUGGGACCCA [C36A A70U] | 0.163

Variant | self-cleavage
GGCCGGCAUGGUCCCAGCCUCCUCGCUGGCGCCGGAUGGGCAACAUUCCGAGGGGACCGUCCCCUCGGUAACGGCGAAUGGGACCCA [C36A U72C] | 0.0405
GGCCGGCAUGGUCCCAGCCUCCUCGCUGGCGCCGGAUGGGCAACAUUCCGAGGGGACCGUCCCCUCGGUAAGGGCGAAUGGGACCCA [C36A U72G] | 0.0978
GGCCGGCAUGGUCCCAGCCUCCUCGCUGGCGCCGGAUGGGCAACAUUCCGAGGGGACCGUCCCCUCGGUAAAGGCGAAUGGGACCCA [C36A U72A] | 0.277
GGCCGGCAUGGUCCCAGCCUCCUCGCUGGCGCCGUCUGGGCAACAUUCCGAGGGGACCGUCCCCUCGGUAAUGGCCAAUGGGACCCA [G35U G76C] | 0.62
GGCCGGCAUGGUCCCAGCCUCCUCGCUGGCGCCGUCUGGGCAACAUUCCGAGGGGACCGUCCCCUCGGUAAUGGCUAAUGGGACCCA [G35U G76U] | 0.595
GGCCGGCAUGGUCCCAGCCUCCUCGCUGGCGCCGGAUGGGCAACAUUCCGAGGGGACCGUCCCCUAGGUAAUGGCGAAUGGGACCCA [C36A C66A] | 0.151
GGCCGGCAUGGUCCCAGCCUCCUCGCUGGCGCCGUCUGGGCAACAUUCCGAGGGGACCUUCCCCUCGGUAAUGGCGAAUGGGACCCA [G35U G59U] | 0.53
GGCCGGCAUGGUCCCAGCCUCCUCGCUGGCGCCGGAUGGGCAACAUUACGAGGGGACCGUCCCCUCGGUAAUGGCGAAUGGGACCCA [C36A C48A] | 0.259
GGCCGGCAUGGUCCCAGCCUCCUCGCUGGCGCCGUCUGGGCAACAUUCCGAGGGGACCGUCCCCUCGGUAAUGGCGAAUGUGACCCA [G35U G81U] | 0.156
GGCCGGCAUGGUCCCAGCCUCCUCGCUGGCGCCGUCUGGGCAACAUUCCGAGGGGACCGUCCCCUCGGUAAUGGCGAAUGCGACCCA [G35U G81C] | 0.133
GGCCGGCAUGGUCCCAGCCUCCUCGCUGGCGCCGUCUGGGCAACAUUCCGAGGGGACCGUCCCCUCGGUAAUGGCGAAUGAGACCCA [G35U G81A] | 0.108
GGCCGGCAUGGUCCCAGCCUCCUCGCUGGCGCCGGGUGGGCAACAUUCCGAGGGGACCGUCCCCUCGGUAAUGGCGAAUGGGACCCC [C36G A87C] | 0.146
GGCCGGCAUGGUCCCAGCCUCCUCGCUGGCGCCGUCUGGGCAACAUUCCGAGGGGACCGUCCCCCCGGUAAUGGCGAAUGGGACCCA [G35U U65C] | 0.434
GGCCGGCAUGGUCCCAGCCUCCUCGCUGGCGCCGGGUGGGCAACAUUCCGAGGGGACCGUCACCUCGGUAAUGGCGAAUGGGACCCA [C36G C62A] | 0.0791
GGCCGGCAUGGUCCCAGCCUCCUCGCUGGCGCCGUCUGGGCAACAUUCCGAGGGGACCGUCCCCUCGGUAAAGGCGAAUGGGACCCA [G35U U72A] | 0.172
GGCCGGCAUGGUCCCAGCCUCCUCGCUGGCGCCGGAUGGGCAACAUUCCGAGGGGACCGGCCCCUCGGUAAUGGCGAAUGGGACCCA [C36A U60G] | 0.178
GGCCGGCAUGGUCCCAGCCUCCUCGCUGGCGCCGUCUGGGCAACAUUCCGAGGGGACCGUCCCCUCGGUAAUCGCGAAUGGGACCCA [G35U G73C] | 0.185
GGCCGGCAUGGUCCCAGCCUCCUCGCUGGCGCCGUCUUGGCAACAUUCCGAGGGGACCGUCCCCUCGGUAAUGGCGAAUGGGACCCA [G35U G38U] | 0
GGCCGGCAUGGUCCCAGCCUCCUCGCUGGCGCCGUCUCGGCAACAUUCCGAGGGGACCGUCCCCUCGGUAAUGGCGAAUGGGACCCA [G35U G38C] | 0.0536
GGCCGGCAUGGUCCCAGCCUCCUCGCUGGCGCCGGGUGGGCAAUAUUCCGAGGGGACCGUCCCCUCGGUAAUGGCGAAUGGGACCCA [C36G C44U] | 0.0426
GGCCGGCAUGGUCCCAGCCUCCUCGCUGGCGCCGGAUGGGCAACACUCCGAGGGGACCGUCCCCUCGGUAAUGGCGAAUGGGACCCA [C36A U46C] | 0.166
GGCCGGCAUGGUCCCAGCCUCCUCGCUGGCGCCGGAUGGGCCACAUUCCGAGGGGACCGUCCCCUCGGUAAUGGCGAAUGGGACCCA [C36A A42C] | 0.0583

Variant | self-cleavage
GGCCGGCAUGGUCCCAGCCUCCUCGCUGGCGCCGGAUGGGCGACAUUCCGAGGGGACCGUCCCCUCGGUAAUGGCGAAUGGGACCCA [C36A A42G] | 0.113
GGCCGGCAUGGUCCCAGCCUCCUCGCUGGCGCCGUCUGGGCAACAUUCCGAGGAGACCGUCCCCUCGGUAAUGGCGAAUGGGACCCA [G35U G54A] | 0.499
GGCCGGCAUGGUCCCAGCCUCCUCGCUGGCGCCGUCUGGGCAACAUUCCGAGGGGACCGUCCCCUCCGUAAUGGCGAAUGGGACCCA [G35U G67C] | 0.41
GGCCGGCAUGGUCCCAGCCUCCUCGCUGGCGCCGUCUGGGCAACAUUCCGAGGGGACCGUCCCCUCAGUAAUGGCGAAUGGGACCCA [G35U G67A] | 0.506
GGCCGGCAUGGUCCCAGCCUCCUCGCUGGCGCCGGGUGGGCAACAUUCCGAGGGGACCGUCCCCUAGGUAAUGGCGAAUGGGACCCA [C36G C66A] | 0.162
GGCCGGCAUGGUCCCAGCCUCCUCGCUGGCGCCGGAUGGGCAACAUUCCGAGGGGACCGUCCCCUCGGUAAUGGCGAAUCGGACCCA [C36A G80C] | 0.178
GGCCGGCAUGGUCCCAGCCUCCUCGCUGGCGCCGGAUGGGCAACAUUCGGAGGGGACCGUCCCCUCGGUAAUGGCGAAUGGGACCCA [C36A C49G] | 0.0297
GGCCGGCAUGGUCCCAGCCUCCUCGCUGGCGCCGGAUGGGCAACUUUCCGAGGGGACCGUCCCCUCGGUAAUGGCGAAUGGGACCCA [C36A A45U] | 0.0475
GGCCGGCAUGGUCCCAGCCUCCUCGCUGGCGCCGGGUGGGCAACAUUCAGAGGGGACCGUCCCCUCGGUAAUGGCGAAUGGGACCCA [C36G C49A] | 0.138
GGCCGGCAUGGUCCCAGCCUCCUCGCUGGCGCCGUCUGGGCAACAUUCCGAGGGGACCGUCCCCUCGGUAAUGGCGAAUUGGACCCA [G35U G80U] | 0.223
GGCCGGCAUGGUCCCAGCCUCCUCGCUGGCGCCGUCUGGGCAACAUUCCGAGGGGACCGUCCCCUCGGUAAUGGCGAAUGGGACCUA [G35U C86U] | 0.464
GGCCGGCAUGGUCCCAGCCUCCUCGCUGGCGCCGGAUGGGCAACAUUCCGAGGGGACCGUCCCCGCGGUAAUGGCGAAUGGGACCCA [C36A U65G] | 0.394
GGCCGGCAUGGUCCCAGCCUCCUCGCUGGCGCCGGGUGGGCAACAUUCCGAGGGGACCGUCCCCUCGGUAAUGGCGCAUGGGACCCA [C36G A77C] | 0
GGCCGGCAUGGUCCCAGCCUCCUCGCUGGCGCCGGAUGGGCAACAUUCCGAGGGGUCCGUCCCCUCGGUAAUGGCGAAUGGGACCCA [C36A A56U] | 0.229
GGCCGGCAUGGUCCCAGCCUCCUCGCUGGCGCCGGAUGGGCAACAUUCCGAGGGGACCGUCCCCUCGGUAAUGGCCAAUGGGACCCA [C36A G76C] | 0.241
GGCCGGCAUGGUCCCAGCCUCCUCGCUGGCGCCGGAUGGGCAACAUUCCGAGGGGACCGUCCCCUCGGUAAUGGCGAAUGGUACCCA [C36A G82U] | 0.0839
GGCCGGCAUGGUCCCAGCCUCCUCGCUGGCGCCGUCUGGGCAACAUUCCGAGGGGACCGUCCCCUCGGUAAUGCCGAAUGGGACCCA [G35U G74C] | 0.272
GGCCGGCAUGGUCCCAGCCUCCUCGCUGGCGCCGGAUGGGCAACAUUCCGAGGGUACCGUCCCCUCGGUAAUGGCGAAUGGGACCCA [C36A G55U] | 0.124
GGCCGGCAUGGUCCCAGCCUCCUCGCUGGCGCCGGAUGGGCAACAUUCCGAGGGCACCGUCCCCUCGGUAAUGGCGAAUGGGACCCA [C36A G55C] | 0.196
GGCCGGCAUGGUCCCAGCCUCCUCGCUGGCGCCGGAUGAGCAACAUUCCGAGGGGACCGUCCCCUCGGUAAUGGCGAAUGGGACCCA [C36A G39A] | 0.113
